This experiment has as its target T1, Hsp90α (Homo sapiens, UniProt P07900).
T1 construct: purchased Abcam
The format is binding. As to conditions: dot blot, 2 µg blotted on membrane, 20 µg recombinant Hsp90α at 4°C overnight, α-Hsp90α immunodetection. The procedure:
Two µg of each peptide was blotted (dot blot) directly on PDV nitrocellulose membrane and blocked with ROTI®Block (Carl Roth, Germany). After washing, the membrane was then incubated with 20 μg of recombinant Hsp90α (Abcam)/Lpl1-his protein at 4°C overnight. In case of interaction studies with Hsp90α, α-Hsp90α (produced in mouse, Abcam) was used as the primary antibody and for interaction studies with Lpl1-his, Anti-6X His tag antibody (also produced in mouse, Sigma-Aldrich, Germany) was used. Alkaline phosphatase conjugated goat-α-mouse IgG (Sigma-Aldrich, Germany) served as the secondary antibody. Detection was done using BCIP®/NBT solution (Sigma, Germany). Lpl1-his was isolated and purified as described in our previous paper (Tribelli et al. [2020]).

B1: Lpl1: model Lpl lipoprotein of S. aureus, parent protein of the peptides (protein)
chain: CGKGNETKEDSKEEQIKKSFAITLDMYPIKNLEDLYDKEGYRDSEFKKGDKGMWTIYTDFAKSNKPGELDDEGMVLNLDRNTRTAKGHYFVTTFYRNGKLPDEKNYKIEMKNNKIILLDEVKDDKLKQKIENFKFFGQYANLKELRKYNNGDVSINENVPSYDVEYKMSNKDEIVKELRSRYNISTEKSPILKMHIDGDLKGSSVGYRKLEIDFSKRENSKLSVIEFLSYKPAKK
modifications: left off: His tag, end not stated, kept
notes: model Lpl lipoprotein of S. aureus, parent protein of the peptides
Take B1: the “Interaction with Hsp90α” value is on record as “Yes”.

Values taken from publication PMC10117725, “From an Hsp90 - binding protein to a peptide drug” (microLife, 2022).
